Data as given in article PMC2191679.

Target: H-2Kb on the surface of RMA-S cells (mouse (endogenous in RMA-S))
Experiment: stabilisation of Kb on RMA-S cells

Row | relative efficiency of peptide-binding to Kb (parent OVA55-62 = 1) | relative efficiency of peptide-binding to Kb (parent OVA257-264 = 1) | Binder
1 | – | 1 | SIVNFEKL [OVA257-264/P3I->V]
2 | – | 1 | SIIRFEKL [OVA257-264/P4N->R]
3 | – | 1 | KIINFEKL [OVA257-264/P1S->K]

Second part, the binder before the results:

Row | Binder | relative efficiency of peptide-binding to Kb (parent OVA55-62 = 1) | relative efficiency of peptide-binding to Kb (parent OVA257-264 = 1)
4 | SVVRFDKL [OVA55-62/P1K->S] | 2 | –
5 | KVVRFEKL [OVA55-62/P6D->E] | 10 | –
6 | KVVNFDKL [OVA55-62/P4R->N] | 2 | –
7 | KVIRFDKL [OVA55-62/P3V->I] | 1 | –
